The values that follow come from patent US20230212304A1 (BIOSION, published 2023).

Experiment [1] has as its target T1, cynomolgus monkey CTLA4-his protein (Acro biosystems, Cat#CT4-C5227) (cynomolgus monkey, UniProt G7PL88 36-161).
T1 construct: bought recombinant protein; also called Cynomolgus CTLA4-his; not shown: his tag
T1 sequence: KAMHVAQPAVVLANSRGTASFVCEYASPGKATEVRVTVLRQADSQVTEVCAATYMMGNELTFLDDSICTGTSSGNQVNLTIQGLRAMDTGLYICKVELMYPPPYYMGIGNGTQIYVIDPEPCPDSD
Description: SPR, Biacore T200; antibody captured, CTLA4-his as analyte. As for the experimental part: (§1) Un-reacted moieties on the biosensor surface were blocked with ethanolamine. […] The antigen-antibody association kinetics was followed for 2 minutes and the dissociation kinetics was followed for 10 minutes. The association and dissociation curves were fit to a 1:1 Langmuir binding model using BIAcore evaluation software.
(SPR reads the build-up and loss of mass on a sensor chip optically.)

Experiment [2] deals with T2, recombinant human CTLA4-his protein (Acro biosystems, Cat#CT4-H5229) (human, UniProt P16410 37-162).
T2 construct: bought recombinant protein; not shown: his tag
T2 sequence (looked up): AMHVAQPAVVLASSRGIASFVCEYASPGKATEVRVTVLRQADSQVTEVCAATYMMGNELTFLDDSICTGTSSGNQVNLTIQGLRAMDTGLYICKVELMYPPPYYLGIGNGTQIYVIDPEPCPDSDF
The description is as above. As for the experimental part:
as §1

The target in experiment [3] is T3, recombinant human CTLA4 protein with human IgG1 Fc tag at the C-terminus (Acro biosystems, Cat#CT4-H5255) (human, UniProt P16410 37-162).
T3 construct: bought protein; also called human CTLA4-Fc; CTLA4-Fc; not shown: human IgG1 Fc tag at the C-terminus
T3 sequence (looked up): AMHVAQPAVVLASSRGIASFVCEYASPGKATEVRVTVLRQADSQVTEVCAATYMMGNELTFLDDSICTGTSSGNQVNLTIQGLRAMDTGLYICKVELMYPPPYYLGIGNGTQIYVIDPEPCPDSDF
Description: capture ELISA: antibody captured on coated plate (anti-human IgG Fc for the chimeric antibodies), biotin human CTLA4-Fc, streptavidin-HRP, OD(450-630). The method, then: (§2) Plates were washed once with wash buffer (PBS+0.05% v/v Tween-20, PBST) and then blocked with 200 µl/well blocking buffer (PBST with 5% w/v non-fatty milk) for 2 hours at 37° C. […] After a final wash, plates were incubated with 100 µl/well substrate TMB (Innoreagents, Cat#TMB-S-002). The reaction was stopped in 15 minutes at room temperature with 50 µl/well 1M H₂SO₄, and the absorbance of the each well was read on a microplate reader using dual wavelength mode with 450 nm for TMB and 630 nm as the reference wavelength, then the OD (450-630) values were plotted against antibody concentration. Data was analyzed using Graphpad Prism software and EC₅₀ values were reported.
For the capture ELISA, AffiniPure Goat Anti-Human IgG, Fcy fragment specific (Jackson Immuno Research, Cat#109-005-008) was used instead of AffiniPure Goat Anti-Mouse IgG, F(ab′)₂ fragment specific, 100 µl/well.

For experiment [4], the target named is T3, recombinant human CTLA4 protein with …. The experiment is described as follows: capture ELISA: antibody captured on anti-mouse IgG F(ab')2 coated plate, biotin human CTLA4-Fc 26 ng/ml, streptavidin-HRP, OD(450-630). The method, then:
as §2
(ELISA stands for enzyme-linked immunosorbent assay.)

The target is the same in experiment [5]. Description: cell-based or functional assay.
Experiment [6] shares this target. The experiment is described as follows: competitive ELISA: antibody pre-mixed with biotin human CTLA4-Fc (65 ng/ml), added to plate coated with the benchmark; competitor: coated Yervoy. The method, then:
Plates were washed once with wash buffer, blocked with 200 µl PBST with 5% w/v non-fatty milk, incubated for 2 hours at 37° C., and washed 4 times.
After incubation at 37° C. for 40 minutes, plates were washed 4 times again using wash buffer. Then the plates were added and incubated with 100 µl/well streptavidin conjugated HRP (1:10000 dilution in PBST, Jackson Immuno Research, Cat#016-030-084, 100 µl/well) for 40 minutes at 37° C. Plates were finally washed using wash buffer. Finally, TMB was added and the reaction was stopped using 1M H₂SO₄, and the absorbance of the each well was read on a microplate reader using dual wavelength mode with 450 nm for TMB and 630 nm as the reference wavelength, then the OD (450-630) values were plotted against antibody concentration. Data was analyzed using Graphpad Prism software and IC₅₀ values were reported.

For experiment [7] the target is unchanged. Description: cell based blocking FACS: antibody pre-mixed with human CTLA4-Fc (1 ug/mL), added to Daudi cells; blocked ligands: cell surface CD80/CD86. The method, then:
Daudi cells were harvested from cell culture flasks at the log phase, washed twice and re-suspended in PBS containing 2% v/v Fetal Bovine Serum (FACS buffer). […] Cells were washed twice and re-suspended in FACS buffer. Fluorescence was measured using a Becton Dickinson FACS Canto II-HTS equipment. Data was analyzed using Graphpad Prism software and IC₅₀ values were reported.

The target is the same in experiment [8]. The experiment is described as follows: cell based blocking FACS: antibody pre-mixed with human CTLA4-Fc, added to Daudi cells; blocked ligands: cell surface CD80/CD86.
In experiment [9] the target is T2, recombinant human CTLA4-his protein …. Description: BLI, Octet RED96; antibody on AHC sensor, CTLA4-his as analyte. The method, then:
Briefly, AHC biosensors (anti-human IgG Fc capture, from ForteBio) were presoaked with 10 mM glycine (pH 1.5) for 3 seconds, and then dipped in a well with running buffer (0.5% w/v BSA in PBST) for 3 seconds, the soaking and dipping steps were repeated for three times. […] A new baseline was run for 180 seconds in another well with running buffer. […] Finally, sensors were presoaked with 10 mM glycine (pH 1.5) for 3 seconds, and then were dipped in a well with running buffer for 3 seconds, the soaking and dipping steps repeated for three times. The association and dissociation curves were fit to a 1:1 Langmuir binding model using ForteBio Data Analysis 8.1.
(In general: BLI is a label-free optical method that tracks binding on a fibre tip over time.)

B1: mouse anti-CTLA4 monoclonal antibody D1B8 (antibody, V domains shown)
VH: QIQLQQSGPELVKPGASVKISCKASGYTFTDYYINWVKQRPGQGLEWIGWIYPGNNNTRYNEKFKGKATLTIDTSSSTAFMHLSSLTSEDSAVYFCARYYFDYWGQGTTLTVSS
VL: DIQMTQSPSSLSASLGERISLTCRASQEITGYLSWLQQKPDGTIKRLIYAASTLDSGVPQRFSGSRSGSDYSLTISSLESEDFADYYCLQYASYPRTFGGGTKLEIK
notes: mouse mAb purified from hybridoma supernatant
In general, Kd refers to the concentration at which binding is half-saturated. By koff is commonly meant a measure of how fast the partners let go of each other. For orientation: kon means the rate constant with which the complex forms. Usually EC50 stands for the concentration that produces a half-maximal response. In experiment [1], B1 returned a Kd of 1.18 nM, a koff of 0.000532 s⁻¹ and a kon of 451000 M⁻¹ s⁻¹. In [2], the Kd was 2.24 nM, the koff came out at 0.000495 s⁻¹ and the kon amounted to 221000 M⁻¹ s⁻¹. For the same molecule, the EC50 in experiment [3] came out at 5.78 nM. Besides, the EC50 in [4] was determined as 1.11 nM. Further, in [5], the “EC50 of IL-2 release (GS-J1 T cells + GS-C1/CD80 cells + human CTLA4-Fc, IL-2 HTRF)” value (“EC50 of IL-2 release” below) turned out to be 43.6 nM.

B2: mouse anti-CTLA4 monoclonal antibody D1A7 (antibody, V domains shown)
VH: QVTLKESGPGMLQPSQTLSLTCSFSGFSLSSSKLGVGWIRQPAGKGLEWLAHIWWNDDNYYVPSLKSRLTISKDTSNNQVFLKITNVDAADTATYYCVQVPYYTTQPWFAYWGQGTLVTVSA
VL: DIQMTQSPASLSASVGETVTITCRASGNIHNYLAWYLQNQGRSPQLLVYNTETLADGVSSRFSGSGSGTQYFLKISSLQPEDFGTYYCQHLWSTPWTFGGGTKLEIK
notes: as for B1
A word on the IC50: it is the concentration that gives 50% inhibition. In the case of B2, the IC50 in experiment [6] was determined as 0.445 nM. Moreover, in experiment [1], binding was put at a Kd of 1.66 nM, the koff amounted to 0.00137 s⁻¹ and the kon was found to be 829000 M⁻¹ s⁻¹. Further, in experiment [2], the Kd was 2.41 nM, the koff turned out to be 0.000602 s⁻¹ and the association rate constant (kon) came to 249000 M⁻¹ s⁻¹. Further, in experiment [7], the IC50 turned out to be 6.81 nM. Besides, the EC50 in experiment [4] was found to be 0.134 nM. In [5], the “EC50 of IL-2 release” value came to 45.9 nM.

B3: chimeric C1G4 anti-CTLA4 antibody (antibody, human IgG4 S228P, kappa, V domains shown)
VH: EVKLDETGGGLVQPGRPIKLSCVASGFTFSDNWMNWVRQSPEKGLEWVAQIRNKPYNYETYYSDSVKGRFTISRDDSKSSVYLQMNNLRTKDMGIYYCTGGFTYWGQGTLVTVSA
VL: DIQMTQSPPSLSASVGETVTITCGASENIYGGLNWYQRKQGKSPQLLIYGATNLADGMSSRFSGSGSGRQYSLKISRLHPDDVATYYCQNVLNTPYTFGGGTKLEIKR
notes: mouse variable domains on human IgG4/kappa, made in 293F cells
For B3, the 50% inhibitory concentration (IC50) in [8] was found to be 10.2 nM. In addition, in experiment [3], the EC50 was 0.869 nM. In [9], the dissociation constant Kd amounted to 1 nM, the koff is 0.000679 s⁻¹ and the kon came out at 676000 M⁻¹ s⁻¹.

B4: mouse anti-CTLA4 monoclonal antibody D1H3 (antibody, V domains shown)
VH: QVQLQQPGAELVNPGASVKLSCKASGYTFTSYWLHWVKQRPGRGLEWIGRIDPNRGTIYYNEKFNNKATVTVDKPSNTAYMQLSRLTLEDSAVYYCARGGSNFYAMDYWGQGTSVTVSS
VL: DIQMTQSPASLSASVGETVTITCRTSENIYSYLAWYQQKQGESPQLLVYNAKTLAEGVPSRFSGSGSGTQFSLKINSLQPEDFGSYYCQNHDGIPFTFGSGTKLEIK
notes: as for B1
Consider B4, for which the IC50 in [6] is 1.86 nM; in experiment [7] it was 9.27 nM. For the same molecule, the equilibrium dissociation constant (Kd) in experiment [1] amounted to 2.07 nM; in experiment [2], 4.15 nM. Moreover, the off-rate constant (koff) in [1] amounted to 0.000601 s⁻¹; in experiment [2], 0.000931 s⁻¹. The kon in [1] is 290000 M⁻¹ s⁻¹; in experiment [2] it was 224000 M⁻¹ s⁻¹. The EC50 in experiment [4] stood at 0.206 nM. For the same molecule, in experiment [5], the “EC50 of IL-2 release” value amounted to 37.8 nM.

B5: mouse anti-CTLA4 monoclonal antibody D1G6 (antibody, V domains shown)
VH: EVQLQQSGPELVKPGASVKLSCKASGNTFTTYVLNWVKQKPGQGLEWIGYFNPYNDAIKYNEKFKGKATLTSDKSSSTAYMELSSLTSEDSAVYYCARFEGGGYAMDYWGQGTSVTVSS
VL: DIVLTQSPASLAVSLGQRATISCRASQSVGTSSYSYIHWYQQKPGQPPKLLIKYASDLESGVPARFSGSGSGTDFTLNIHPVEEEDTATYYCQHSWEIPYTFGGGTKLEIK
notes: as for B1
For the molecule B5, the concentration for half-maximal inhibition (IC50) in experiment [6] was determined as 0.445 nM. In experiment [1], this molecule displayed a Kd of 1.96 nM, a koff of 0.000662 s⁻¹ and a kon of 338000 M⁻¹ s⁻¹. Also, in experiment [2], the dissociation constant (Kd) was determined as 9.06 nM, the koff worked out at 0.000695 s⁻¹ and the kon came out at 76700 M⁻¹ s⁻¹. In experiment [4], the EC50 came out at 0.0979 nM. The “EC50 of IL-2 release” value in experiment [5] came out at 41.5 nM.

B6: mouse anti-CTLA4 monoclonal antibody D2A4 (antibody, V domains shown)
VH: QVQLQQPGAELVKPGSSVNLSCKASGYTFTSYWVHWVKQGPGRGLEWIGRIDPNRGGTYYNENFKTKAALTVDSPSSTAYMHLSSLTSEDSAVYYCARGGLNYYALDYWGQGTSVTVSS
VL: DIQMTQSPASLFASLGETVTITCRASENIYSYLAWYQQKQGKSPQLLVYNANTLTEGVPSSFSGSGSGTQFSLKINTLQPEDFGTYYCQHHYGIPFTFGSGTKLEIK
notes: as for B1
Take B6: the IC50 in [6] was determined as 3.85 nM. In experiment [1], this molecule displayed a Kd of 2.24 nM, a koff of 0.00076 s⁻¹ and a kon of 340000 M⁻¹ s⁻¹. Further, in [2], the Kd is 2.24 nM, the koff was 0.00153 s⁻¹ and the kon was determined as 671000 M⁻¹ s⁻¹. Moreover, the IC50 in experiment [7] was found to be 7.12 nM. For the same molecule, the EC50 in [4] was determined as 0.245 nM. Moreover, in experiment [5], the “EC50 of IL-2 release” value was 38.3 nM.

B7: mouse anti-CTLA4 monoclonal antibody D1H4 (antibody, V domains shown)
VH: EVQLQQSGPVLVKPGASVKMSCKASGYTFTDYYMNWVKQSHGKSLEWIGAINPDHGGSSYNQKFKGKATLTVDKSSSTAYMELNSLTSEDSAVYYCARDGSIHYVMDDWGQGTSVTVSS
VL: DIVMSQSPSSLTVSAGDKVTMSCKSSQSLLHSGNQKNYLAWYQQKPWQPPKLLIYGASTRESGVPDRFTGSGSGTDFTLTISSVQAEDLAVYYCQNDYGYPYTFGGGTKLEIK
notes: as for B1
Regarding B7, the “IC50 (read off the curve)” value in [6] is around 2 nM. Also, in experiment [1], the Kd was determined as 0.727 nM, the koff was found to be 0.000422 s⁻¹ and the kon worked out at 580000 M⁻¹ s⁻¹. Besides, in experiment [2], the Kd was found to be 0.925 nM, the koff was 0.000321 s⁻¹ and the kon came to 346000 M⁻¹ s⁻¹. Moreover, in experiment [7], the IC50 is around 8.85 nM. Besides, the EC50 in experiment [4] worked out at 0.108 nM. Further, in experiment [5], the “EC50 of IL-2 release” value was around 40.8 nM.
